Data as given in PMC12654582.
Like-named read-outs stand apart in the source and are kept apart here.

Legend:
[1] = test system: PmrA I13M (Acinetobacter baumannii ATCC 19606); experiment: fluorescence anisotropy
[2] = test system: PmrA M12I (Acinetobacter baumannii ATCC 19606); experiment: fluorescence anisotropy
[3] = test system: PmrA I13M (Acinetobacter baumannii ATCC 19606); experiment: fluorescence anisotropy; remark: listed apart in the source
[4] = test system: PmrA M12I (Acinetobacter baumannii ATCC 19606); experiment: fluorescence anisotropy; remark: listed apart in the source
[5] = molecular target: phosphorylated PmrA D10N (Acinetobacter baumannii (strain ATCC 19606)); experiment: native gel or EMSA; Native PAGE after reaction of 40 uM PmrA with 20 uM PmrB and ATP (phosphorylated PmrA); 14% Tris-glycine gel, 4 C
[6] = molecular target: phosphorylated PmrA G54E (Acinetobacter baumannii (strain ATCC 19606)); experiment: as above
[7] = molecular target: phosphorylated PmrA I13M (Acinetobacter baumannii (strain ATCC 19606)); experiment: as above
[8] = molecular target: phosphorylated PmrA M12I (Acinetobacter baumannii (strain ATCC 19606)); experiment: as above
[9] = molecular target: phosphorylated PmrA S119T (Acinetobacter baumannii (strain ATCC 19606)); experiment: as above
[10] = molecular target: phosphorylated WT PmrA (Acinetobacter baumannii (strain ATCC 19606)); experiment: as above

AbpmrC_30mer FAM
Kd [1]: 17.4 µM | Kd [2]: 21 µM | Kd [3]: 0.0516 µM | Kd [4]: 0.0423 µM

phosphorylated PmrA D10N (natural protein)
stoichiometry N [5]: 2

phosphorylated PmrA G54E (natural protein)
stoichiometry N [6]: 2

phosphorylated PmrA I13M (natural protein)
stoichiometry N [7]: 2

phosphorylated PmrA M12I (natural protein)
stoichiometry N [8]: 2

phosphorylated PmrA S119T (natural protein)
stoichiometry N [9]: 2

phosphorylated WT PmrA (natural protein)
stoichiometry N [10]: 2
